Data reported in patent publication US20180079819A1 (IMMUNOGEN, published 2018).
Values joined by “and” are separate entries in the source; they are usually repeats but may differ in a detail not shown here. Equal entries are not always repeated.

T1: IL3Rα (101-306) chimeric receptor protein: GMRα residues 1-114 fused to IL3Rα residues 101-306, His-tagged (human, UniProt P15509 23-114)
T1 construct: range 1-114; also called CRM domain of IL3Rα construct
T1 sequence: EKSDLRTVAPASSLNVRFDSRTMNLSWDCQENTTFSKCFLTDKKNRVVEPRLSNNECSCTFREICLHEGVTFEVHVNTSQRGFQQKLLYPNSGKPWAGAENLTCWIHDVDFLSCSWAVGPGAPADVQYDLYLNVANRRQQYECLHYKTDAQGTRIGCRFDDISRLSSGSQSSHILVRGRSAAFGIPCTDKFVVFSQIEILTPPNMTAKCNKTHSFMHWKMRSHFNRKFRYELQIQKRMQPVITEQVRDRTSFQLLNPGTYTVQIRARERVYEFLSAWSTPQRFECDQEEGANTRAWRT

T2: extracellular domain of CD123/IL-3Rα (residues 1-306), histidine tagged (human, UniProt P26951 19-306)
T2 construct: Expressed in HEK 293T cells, purified on Ni Sepharose, coated on ELISA plates; also called wild type IL-3Rα; wild-type IL-3Rα construct
T2 sequence: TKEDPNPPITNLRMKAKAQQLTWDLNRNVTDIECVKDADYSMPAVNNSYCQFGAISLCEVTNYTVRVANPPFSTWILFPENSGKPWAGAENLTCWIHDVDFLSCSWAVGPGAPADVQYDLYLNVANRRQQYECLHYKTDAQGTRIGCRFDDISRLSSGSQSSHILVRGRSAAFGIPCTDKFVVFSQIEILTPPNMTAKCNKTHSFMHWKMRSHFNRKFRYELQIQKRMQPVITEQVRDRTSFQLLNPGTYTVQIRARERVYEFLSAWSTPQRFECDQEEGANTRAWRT

T3: IL3Rα (1-100) chimeric receptor protein: IL3Rα residues 1-100 fused to GMRα residues 115-325, His-tagged (human, UniProt P15509 115-325)
T3 construct: range 115-325; also called IL-3Rα N-terminal domain construct
T3 sequence: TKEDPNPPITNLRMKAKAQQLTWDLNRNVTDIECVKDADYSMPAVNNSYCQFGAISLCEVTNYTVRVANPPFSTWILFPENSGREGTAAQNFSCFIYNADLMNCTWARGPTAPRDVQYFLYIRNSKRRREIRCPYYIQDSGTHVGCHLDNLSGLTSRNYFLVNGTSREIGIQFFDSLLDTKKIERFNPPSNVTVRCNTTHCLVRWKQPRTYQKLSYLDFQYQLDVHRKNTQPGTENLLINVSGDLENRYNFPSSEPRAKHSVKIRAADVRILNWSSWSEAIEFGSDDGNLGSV


Legend:
[1] = target: T1, IL3Rα (101-306) chimeric receptor …; assay: ELISA on plate-coated His-tagged protein, A450
Procedure: (§1) The chimeric and humanized anti-IL3Rα antibodies were tested in enzyme-linked immunosorbent assay (ELISA) format for binding to the IL-3Rαproteins described above. Briefly, each His-tagged IL-3Rαprotein purified by Ni Sepharose excel chromatography was diluted to 1 ng/mL in 50 mM sodium bicarbonate buffer pH 9.6, and 100 μL was added to each well. After a 16 hr incubation at 4° C., the plates were washed with Tris-buffered saline with 0.1% Tween-20 (TBST), then blocked with 200 μL blocking buffer (TBS with 1% BSA). Next, 100 μL of primary antibody, serially diluted in blocking buffer, was added in duplicate to the ELISA wells and incubated at room temperature for 1 hr. The plates were then washed 3 times with TBST before adding 100 μL of anti-human IgG (H+L)-HRP (Jackson ImmunoResearch) to each well. Once again the plates were incubated for 1 hr at room temperature followed by three washes with TBST. Finally, 100 μL of TMB one component HRP microwell substrate (Surmodics) was added to each well and incubated for 5 min. The reaction was stopped by adding 100 μL stopping solution (Surmodics) and absorbances were read at 450 nm.
(§2) Binding of the CD123 antibodies to the chimeric IL-3Rαproteins was evaluated in comparison to the wild type IL-3Rα.

[2] = target: T2, extracellular domain of CD123/IL-3Rα …; assay: ELISA on plate-coated His-tagged protein, A450
Procedure: as §1, §2

[3] = target: T4, human CD123 (IL-3Rα, interleukin-3 receptor alpha chain) (human, UniProt P26951 19-378); assay: flow cytometry on HNT-34 cells; apparent Kd
T4 construct: CD123 on human cell lines (TF-1, HNT-34, MOLM-13 and other AML, B-ALL, CML and NHL lines) or on 300-19 cells stably expressing human CD123; also called CD123 antigen; human CD123 antigen

[4] = target: T4, human CD123 (IL-3Rα, interleukin-3 …); assay: flow cytometry on MOLM-13 cells; apparent Kd; MOLM-13 cells
[5] = target: T4, human CD123 (IL-3Rα, interleukin-3 …); assay: flow cytometry on HNT-34 cells, against muCD123-3 of Example 5
[6] = target: T4, human CD123 (IL-3Rα, interleukin-3 …); assay: cell-based or functional assay
[7] = target: T4, human CD123 (IL-3Rα, interleukin-3 …); assay: flow cytometry on HNT-34 cells, PE-conjugated goat anti-human secondary
[8] = target: T4, human CD123 (IL-3Rα, interleukin-3 …); assay: flow cytometry on HNT-34 cells, apparent Kd against that of 7G3
[9] = target: T4, human CD123 (IL-3Rα, interleukin-3 …); assay: flow cytometry on HNT-34 cells; EC50 of the binding curve taken as apparent Kd
[10] = target: T4, human CD123 (IL-3Rα, interleukin-3 …); assay: flow cytometry on TF-1 cells; EC50 of the binding curve taken as apparent Kd; TF-1 cells
Procedure: Binding affinity was tested by flow cytometry using purified antibodies. […] TF-1 cells (5×10⁴ cells per sample) were incubated with varying concentrations of murine antibodies in 200 μL FACS buffer (DMEM medium supplemented with 2% normal goat serum). The cells were then pelleted, washed twice, and incubated for 1 hr with 100 μL of phycoerythrin (PE)-conjugated goat anti-mouse IgG-antibody (Jackson Laboratory). The cells were pelleted again, washed with FACS buffer and resuspended in 200 μL of PBS containing 1% formaldehyde. Samples were acquired using a FACSCalibur flow cytometer with the HTS multiwell sampler, or a FACS array flow cytometer, and analyzed using CellQuest Pro (all from BD Biosciences, San Diego, US). For each sample the geomean fluorescence intensity for FL2 was calculated and plotted against the antibody concentration in a semi-log plot. A dose-response curve was generated by non-linear regression and the EC₅₀ value of each curve, which corresponds to the apparent dissociation constant (Kd) of each antibody, was calculated using GraphPad Prism v4 (GraphPad software, San Diego, Calif.).

[11] = target: T4, human CD123 (IL-3Rα, interleukin-3 …); assay: flow cytometry on HNT-34 cells, against muCD123-6 of Example 5
[12] = target: T3, IL3Rα (1-100) chimeric receptor …; assay: ELISA on plate-coated His-tagged protein, A450
Procedure: as §1, §2

[13] = target: T4, human CD123 (IL-3Rα, interleukin-3 …); assay: flow cytometry on HNT-34 cells, against muCD123-14 of Example 5

EC50 [2] [nM] | Kd [3] | IC50, inhibition of IL3-dependent proliferation of TF-1 cells [6] [nM] | IC50, inhibition of IL-3 dependent proliferation of TF-1 cells [6] [nM] | Binder | other results
0.274 | 0.1 nM | 0.1 |  | chCD123-3 (antibody, human IgG1, V domains shown, human IgG1 and Kappa are spelled out for chCD123-6 and the same vectors and constant regions were used; also called chimeric CD123-3 antibody) VH: EFQLQQSGPEVVKPGASVKMSCKASGYTFTSYVMHWMKQKPGQGLEWIGYIKPYKDGTKYNEKFKGKATLISDKPSSTAYMELSSLTSEDSAVYYCAREGENGYYDAMDYWGQGTSVTVSS VL: DIQMTQSPSSLSASLGGKVTITCKASQDINKYIAWYQHKPGKGPRLLIHYTSTLQPGIPSRFSGSGSGRDYSFSISNLEPEDIATYYCLQYDNLLYTFGGGTKLELKR | EC50 [1]: 0.852 nM; Kd [4]: 0.2 nM; fold difference of Kd from the murine counterpart [5]: ≤ 2.5 fold
 | ~0.06 nM |  | 0.02 | huCD123-6Gv4.7S3 (antibody, human IgG1, kappa, also called huCD123-6Gv4.7 clone (S3); CD123-6G4.7S3) heavy: not shown light: SIQMTQSPSSLSASVGDRVTITCRASQDINSYLSWFQQKPGKAPKTLIYRVNRLVDGVPSRFSGSGSGNDYTLTISSLQPEDFATYYCLQYDAFPYTFGQGTKVEIKRTVAAPSVFIFPPSDEQLKSGTASVVCLLNNFYPREAKVQWKVDNALQSGNSQESVTEQDSKDSTYSLSSTLTLSKADYEKHKVYACEVTHQGLSSPVTKSFNRGEC | EC50 (read off the curve) [7]: ~0.05 nM; fold higher affinity than the 7G3 antibody [8]: ≥ 30 fold
0.106 |  |  |  | huCD123-6Gv4.7 (antibody, human IgG1, kappa, CDR-grafted humanized antibody; also called version 4.7 (VL Gv4 and VH Gv7)) heavy: not shown light: DIQMTQSPSSLSASVGDRVTITCRASQDINSYLSWFQQKPGKAPKTLIYRVNRLVDGVPSRFSGSGSGNDYTLTISSLQPEDFATYYCLQYDAFPYTFGQGTKVEIKRTVAAPSVFIFPPSDEQLKSGTASVVCLLNNFYPREAKVQWKVDNALQSGNSQESVTEQDSKDSTYSLSSTLTLSKADYEKHKVYACEVTHQGLSSPVTKSFNRGEC | EC50 [1]: 0.145 nM
 | ~0.06 nM |  | 0.02 | huCD123-6Gv4.7S2 (antibody, human IgG1, kappa, CDR-grafted humanized antibody with an engineered N-terminal Ser on the heavy chain; also called huCD123-6Gv4.7 clone (S2)) heavy: not shown light: DIQMTQSPSSLSASVGDRVTITCRASQDINSYLSWFQQKPGKAPKTLIYRVNRLVDGVPSRFSGSGSGNDYTLTISSLQPEDFATYYCLQYDAFPYTFGQGTKVEIKRTVAAPSVFIFPPSDEQLKSGTASVVCLLNNFYPREAKVQWKVDNALQSGNSQESVTEQDSKDSTYSLSSTLTLSKADYEKHKVYACEVTHQGLSSPVTKSFNRGEC | fold higher affinity than the 7G3 antibody [8]: ≥ 30 fold
 | ~0.06 nM |  | 0.05 | muCD123-6 (antibody, mouse IgG1, kappa, V domains shown, Murine monoclonal antibody purified from hybridoma supernatant; also called CD123Mu-6; CD123 Mu-6) VH: EFQLQQSGPELVKPGASVKMSCKASGYIFTSSIMHWMKQKPGQGLEWIGYIKPYNDGTKYNEKFKGKATLTSDKSSSTANMELNSLTSEDSAVYYCAREGGNDYYDTMDYWGQGTSVTVSS VL: DIKMTQSPSSMYASLGERVTITCKASQDINSYLSWFQQKPGKSPKTLIYRVNRLVDGVPSRFSGSGSGQDYSLTISSLEYEDMGIYYCLQYDAFPYTFGGGTKLEIKR | Kd [9]: 0.07 nM; Kd [10]: 0.1 nM
 | 0.04 nM and ~0.06 nM | 0.03 | 0.02 | chCD123-6 (antibody, human IgG1, V domains shown, also called chimeric CD123-6 antibody) VH: EFQLQQSGPELVKPGASVKMSCKASGYIFTSSIMHWMKQKPGQGLEWIGYIKPYNDGTKYNEKFKGKATLTSDKSSSTANMELNSLTSEDSAVYYCAREGGNDYYDTMDYWGQGTSVTVSS VL: DIKMTQSPSSMYASLGERVTITCKASQDINSYLSWFQQKPGKSPKTLIYRVNRLVDGVPSRFSGSGSGQDYSLTISSLEYEDMGIYYCLQYDAFPYTFGGGTKLEIKR | fold difference of Kd from the murine counterpart [11]: ≤ 2.5 fold; Kd [4]: 0.08 nM
 |  |  | 0.08 | muCD123-14 (antibody, mouse IgG1, kappa, V domains shown, Murine monoclonal antibody purified from hybridoma supernatant; also called CD123Mu-14; CD123 Mu-14) VH: EVKLVESGGDLVKPGGSLKLSCAASGFTFSNYAMSWVRQNSEKRLEWVATINSGGSFTYYPDSVKGRFTISRDNAKDSLYLQMSSLNSEDTAMYYCARQSEAYYGYDKRTWFAYWGQGTLVTVSS VL: DILLTQSPAILSVSPGTRVSFSCRASQSVGTSIHWYQQRPNGFPRLLIKYASESISGIPSRFSGSGSGTDFTLNINSVESEDIADYYCQQSKSWPLTFGAGTKLELKR | Kd [9]: 0.5 nM; Kd [10]: 0.3 nM
0.0655 | 0.2 nM | 0.05 |  | chCD123-14 (antibody, V domains shown, also called chimeric CD123-14 antibody) VH: EVKLVESGGDLVKPGGSLKLSCAASGFTFSNYAMSWVRQNSEKRLEWVATINSGGSFTYYPDSVKGRFTISRDNAKDSLYLQMSSLNSEDTAMYYCARQSEAYYGYDKRTWFAYWGQGTLVTVSS VL: DILLTQSPAILSVSPGTRVSFSCRASQSVGTSIHWYQQRPNGFPRLLIKYASESISGIPSRFSGSGSGTDFTLNINSVESEDIADYYCQQSKSWPLTFGAGTKLELKR | EC50 [12]: 0.0479 nM; fold difference of Kd from the murine counterpart [13]: ≤ 2.5 fold
